The target in experiment [1] is T1, Mouse PAR2 on Flp-In CHO cells (mouse, UniProt P55086 39-399).
T1 construct: whole, on cells
T1 sequence (looked up): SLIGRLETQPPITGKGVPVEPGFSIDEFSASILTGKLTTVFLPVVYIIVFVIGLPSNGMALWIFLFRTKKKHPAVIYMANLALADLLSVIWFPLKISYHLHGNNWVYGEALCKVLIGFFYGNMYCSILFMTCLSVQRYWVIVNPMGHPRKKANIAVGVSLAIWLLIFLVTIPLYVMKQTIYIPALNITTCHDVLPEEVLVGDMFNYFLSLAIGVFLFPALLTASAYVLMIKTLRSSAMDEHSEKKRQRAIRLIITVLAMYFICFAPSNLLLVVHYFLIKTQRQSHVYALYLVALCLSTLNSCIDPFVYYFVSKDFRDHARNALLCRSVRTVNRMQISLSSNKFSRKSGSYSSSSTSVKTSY
Description: cell binding, flow cytometry/IntelliCyt. Background: Flow cytometry measures light scatter and fluorescence of single cells or particles in a stream.

Experiment [2] has as its target T2, Wildtype human PAR2 expressed on cells (human, UniProt P55085 37-397).
T2 sequence: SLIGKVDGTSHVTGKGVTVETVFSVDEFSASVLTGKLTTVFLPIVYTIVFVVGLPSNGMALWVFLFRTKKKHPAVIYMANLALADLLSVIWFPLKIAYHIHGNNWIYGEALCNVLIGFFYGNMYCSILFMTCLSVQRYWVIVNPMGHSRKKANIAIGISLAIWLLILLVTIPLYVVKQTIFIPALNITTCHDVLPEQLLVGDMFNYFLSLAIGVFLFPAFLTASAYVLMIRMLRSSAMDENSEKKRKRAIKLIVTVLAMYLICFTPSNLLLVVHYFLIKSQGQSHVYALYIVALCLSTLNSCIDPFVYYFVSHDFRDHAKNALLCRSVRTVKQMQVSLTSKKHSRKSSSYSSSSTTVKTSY
Description: cell-based or functional assay.

The target in experiment [3] is T3, PAR2-3: P157: 1-377, glycosylated, pBacMamHisStrepII, full length (human, UniProt P55085 26-377).
T3 construct: detergent-solubilised analyte in SPR, or on infected cells in flow cytometry; also called FL-N PAR2 StaR; FL-N StaR; not shown: C-terminal StrepII and deca-histidine tags
T3 sequence: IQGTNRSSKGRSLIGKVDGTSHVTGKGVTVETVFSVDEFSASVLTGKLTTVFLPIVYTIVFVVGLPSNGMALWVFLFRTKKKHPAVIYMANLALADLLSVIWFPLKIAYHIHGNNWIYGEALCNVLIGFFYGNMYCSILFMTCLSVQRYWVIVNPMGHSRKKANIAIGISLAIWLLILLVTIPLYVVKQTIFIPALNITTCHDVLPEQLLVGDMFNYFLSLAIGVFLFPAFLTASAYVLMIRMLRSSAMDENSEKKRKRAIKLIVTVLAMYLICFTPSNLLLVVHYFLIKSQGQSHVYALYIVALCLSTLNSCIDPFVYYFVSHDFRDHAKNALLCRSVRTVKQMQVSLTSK
Nature of the experiment: SPR Biacore T200; IgG captured on anti-human IgG, 250 nM PAR2 analyte; 1:1 model. How it is done:
(§1) The assay of PAR2 interaction with anti-PAR2 antibodies was carried out using a Biacore T200 instrument (GE Healthcare). Anti-human IgG antibody (Human Antibody Capture Kit, GE Healthcare) was immobilised by amine coupling on a sensor chip CM3 (GE Healthcare) to a surface density of 3500 to 4500 resonance units (RU). Immobilisation was carried out at 25° C. in HBS-EP+ buffer (GE Healthcare). The buffer was then changed to 50 mM HEPES, pH 7.5, 150 mM NaCl, 0.02% LMNG, 0.002% CHS. Each cycle of the PAR2-antibody interaction assay consisted of antibody capture (100 nM antibody injected for 2 min at a flow rate of 5 μL/min), PAR2 injection (blank or 250 nM, with contact and dissociation times of 2 and 3 minutes, respectively, at a flow rate of 20 μl/minute), and chip surface regeneration (30 seconds at 20 μl/minute) using the regeneration solution from Human Antibody Capture Kit (GE Healthcare). […] Measurements between each experimental data set were within the acceptable margins for this methodology.
The antibodies were captured on anti-human IgG chip surface followed by injection of 250 nM PAR2. The data were fitted to 1:1 interaction model.

For experiment [4], the target named is T3, PAR2-3: P157: 1-377, glycosylated, …. Nature of the experiment: SPR; IgG immobilised, detergent solubilised FL-N PAR2 StaR as analyte. As to the method: (§2) For three purified IgG1f_AEASS clones Y021171, Y022054 and Y022063 affinities to human PAR2-3 variant (P157: 1-377, glycosylated, pBacMamHisStrepII, full length) were determined by SPR immobilizing the IgG and probing with detergent (LMNG/CHS) solubilized FL-N PAR2 StaR. Affinities were 22 nM and 20 nM for Y022063 and Y021171, respectively.
as §1
Background: In SPR one partner is held on a chip, and binding of the other changes the refractive index at the surface.

Experiment [5] has as its target Cynomolgus PAR2 on BacMam-infected HEK293 cells (cynomolgus). Description: cell-based or functional assay.
Experiment [6] concerns the target T2, Wildtype human PAR2 expressed on cells. Description: cell-based or functional assay. The source holds these as a separate data set.
The target of another experiment is Rhesus PAR2 on cells (rhesus (Macaca mulatta)). Nature of the experiment: cell-based or functional assay.
In experiment [7] the target is T3, PAR2-3: P157: 1-377, glycosylated, …. Description: SPR Biacore; IgG captured on anti-human IgG, 100 nM PAR2 analyte; 1:1 model. As to the method:
The antibodies were captured on anti-human IgG chip surface followed by injection of 100 nM PAR2. The data were fitted to 1:1 interaction model except for clone ‘Y021160’ in which case heterogeneous ligand model was used and component with slow dissociation was used for comparison.
as §2

In a further experiment the target is T4, Wildtype human PAR 1 (human, UniProt P25116 42-425).
T4 construct: BacMam-infected HEK293f cells in the IP-One assay
T4 sequence: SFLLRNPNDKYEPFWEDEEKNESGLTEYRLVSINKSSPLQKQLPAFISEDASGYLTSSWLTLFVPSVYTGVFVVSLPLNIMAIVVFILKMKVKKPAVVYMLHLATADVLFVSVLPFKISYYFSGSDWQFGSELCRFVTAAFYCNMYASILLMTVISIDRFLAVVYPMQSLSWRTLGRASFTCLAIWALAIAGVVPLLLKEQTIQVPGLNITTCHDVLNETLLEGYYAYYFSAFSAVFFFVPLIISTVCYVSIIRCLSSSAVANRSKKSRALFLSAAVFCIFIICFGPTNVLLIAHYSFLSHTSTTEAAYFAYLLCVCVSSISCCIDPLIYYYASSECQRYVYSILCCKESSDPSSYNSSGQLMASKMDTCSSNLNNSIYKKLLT
Description: IntelliCyt flow cytometry, titration of IgG1f_AEASS, S/BG. How it is done: (§3) To evaluate species cross-reactivity and/or unwanted binding to counter-targets simultaneously, screening in 384-well plate format was performed using the HTFC/iQue screening platform from IntelliCyt. The HTFC/iQue Screening System was also used for evaluation of binding to multiple target cell lines or evaluation of unwanted/non-specific binding in parallel, in other words multiplexing. Different cell populations could be distinguished by pre-labelling with distinct amounts of fluorescent dyes, such as Calcein or Cell-Tracker Green, establishing a unique signature of fluorescence intensity for each cell population, thereby producing a fluorescence coding system. The color-coded cell lines were then physically combined and mixed together with antibodies to be tested. Individual cell-lines could be identified via the fluorescence of the respective cell-line that had been pre-labelled. Crude bacterial cell lysates were combined with cells and incubated for 1 hour at room temperature in the dark, shaking gently. Fluorescence measurement was performed with the IntelliCyt HTFC/iQue device. In between incubation steps, no washing was required. Raw data were evaluated with the help of the ‘ForeCyt’ software. After data acquisition, the cell lines from each sample could be identified according to their fluorescence signature and individually evaluated for antibody binding. […]

Experiment [8] concerns the target T5, V5His-huPAR2 on Flp-In CHO cells (human, UniProt P55085 37-397).
T5 sequence: T2 sequence
Nature of the experiment: IntelliCyt flow cytometry, titration of IgG1f_AEASS on Flp-In CHO_V5His_huPAR2 cells, S/BG. How it is done: as §3

Experiment [9] concerns the target T2, Wildtype human PAR2 expressed on cells. Nature of the experiment: IntelliCyt flow cytometry, titration of IgG1f_AEASS on HEK Flp-In TRex 293_huPAR2 expression-induced cells, S/BG. As to the method:
as §3

Experiment [10] addresses T1, Mouse PAR2 on Flp-In CHO cells. Nature of the experiment: FACS titration on CHO mouse Par2 cells, RLU [continued) C]. An excerpt: Binding events to cell surface expressed antigen were identified by flow cytometry using either crude E. coli lysates from the panning output or purified antibodies. High throughput primary screens of panning outputs from differential whole cell pannings (DWCP) were mainly performed on human wild type PAR2-expressing Flp-In CHO cells (Flp-In CHO_huPAR2), GNTI BacMam wild type PAR2 cells and GNTI BacMam truncated PAR2 StaR versus parental Flp-In CHO cells (PAR2 negative) or non-infected HEK293GNTI-cells. Candidates showing an elevated background binding to parental Flp-In CHO cells were ascribed as either non-specific or off-target binders. All steps were performed in FACS buffer including FCS and sodium azide to prevent potential receptor internalization. Cell suspensions were transferred into microtiter plates and antibody samples were added followed by subsequent incubation of plates at 4° C. Sample volume and cell-number were adjusted to the plate type used. Following incubation, cells were spun down and washed with FACS buffer. Fluorophore-conjugated secondary reagents were used for detection of bound antibodies. Plates were measured using the BD FACS Array or IntelliCyt HTFC/iQue System and data was analysed using FlowJo, ForeCyt or proprietary software tools (FIG. 3).

B1: Y022054 (antibody, V domains shown)
VH: EVQLLESGGGLVQPGGSLRLSCAASGFTFSSYAISWVRQAPGKGLEWVSAISGSGGSTYYAESVKGRFTISRDNSKNTLYLQMNSLRAEDTAVYYCARGYAEFGVWGQGTLVTVSS
VL: DIQMTQSPSSLSASVGDRVTITCRASQSISSYLNWYQQKPGKAPKLLIYAASSLQSGVPSRFSGSGSGTDFTLTISSLQPEDFATYYCQQTWGGPQTFGQGTKVEIKR
For orientation: Kd means a measure of binding affinity in units of concentration. A low value points to higher affinity. In general, koff refers to the rate constant with which the complex falls apart. In general, kon refers to the second-order rate constant of association. Higher therefore signals faster complex formation. Consider B1, for which the binding result in experiment [1] is recorded as “no binding”. The “% Max Inhibition AP, IP-One” value in experiment [2] was found to be 17%. For the same molecule, in experiment [3], the Kd came out at 2.5 nM, the koff is 0.00029 s⁻¹ and the kon was 120000 M⁻¹ s⁻¹. Besides, in experiment [4], the “fold higher affinity compared to Y022063 and Y021171” value was found to be 10 fold.

B2: Y022065 (antibody, human IgG1, lambda, V domains shown)
VH: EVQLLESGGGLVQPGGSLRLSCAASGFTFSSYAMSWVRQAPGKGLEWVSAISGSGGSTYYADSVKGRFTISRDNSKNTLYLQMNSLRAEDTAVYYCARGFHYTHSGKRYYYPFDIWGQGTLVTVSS
VL: QSALTQPASVSGSPGQSITISCTGTSSDVGSYNLVSWYQQHPGKAPKLMIYEGSKRPSGVSNRFSGSKSGNTASLTISGLQAEDEADYYCSQYATFIAFAVFGGGTKLTVLG
notes: also called clone Y022065; parental clone Y022065
In general, EC50 (read off the curve) refers to the concentration that produces a half-maximal response. High values mean lower potency in that assay, low ones higher potency in that assay. Take B2: the “IC50 (nM), SLIGKV agonist challenge, Cyno” value in experiment [5] was > 2000 nM. Further, in [6], the “IC50 (nM), SLIGKV agonist challenge, Human” value came to 264 nM. Besides, the “IC50 (nM), SLIGKV agonist challenge, Rhesus” value in the experiment with Rhesus PAR2 on cells was > 2000 nM. In experiment [7], the Kd was 5.3 nM, the koff was determined as 0.00016 s⁻¹ and the kon was 30000 M⁻¹ s⁻¹. In addition, the binding result in the experiment with Wildtype human PAR 1 was “no binding (tested: 200 nM)”. In experiment [8], the “EC50 (read off the curve)” value was ~4 nM. Further, the “EC50 (read off the curve)” value in experiment [9] is ~7 nM. Besides, in experiment [2], the “% Max Inhibition AP, IP-One” value amounted to 43%. Besides, the binding result in experiment [10] was “no binding”.

Source of the values: patent publication US20250313621A1 (NXERA PHARMA UK, published 2025).
